Results from doi:10.1101/689042v1.

What was measured:
[1] = substrate: OC[C@@H](O)[C@@H](O)[C@H](O)[C@@H](O)CO; assay: purified protein; assay type: biochemical, Sinorhizobium meliloti; details: 1.5 mM NAD+, 20 mM CAPS pH 11
[2] = substrate: OC[C@@H](O)[C@H](O)[C@H](O)[C@@H](O)CO; assay: purified protein; assay type: biochemical, Sinorhizobium meliloti; details: 1.5 mM NAD+, 20 mM CAPS pH 11

B1: SmoS (SmSmoS) (Sinorhizobium meliloti 1021) (protein)
chain: MKRLEGKSALITGSARGIGRAFAEAYVREGATVAIADIDIERARQAAAEIGPAAYAVQMDVTRQDSIDAAIAATVEHAGGLDILVNNAALFDLAPIVEITRESYEKLFAINVAGTLFTLQAAARQMIAQGRGGKIINMASQAGRRGEALVAIYCATKAAVISLTQSAGLDLIKHRINVNAIAPGVVDGEHWDGVDALFARYENRPRGEKKRLVGEAVPFGRMGTAEDLTGMAIFLASAESDYIVSQTYNVDGGNWMS
Km [1]: 2500 µM
kcat [1]: 25625.6 s⁻¹
Km [2]: 1200 µM
kcat [2]: 3227.1 s⁻¹
